{"source": "paper PMC4169731", "about": "(Peptides, 2014)", "type_in_all_cases": "in vivo, mouse", "key": {"AA amyloid deposits [1]": {"tested_on": "AA amyloid deposits", "assay": "Longitudinal SPECT/CT imaging of ^125I-p5 in AA mice"}, "AA amyloid deposits [2]": {"tested_on": "AA amyloid deposits", "assay": "Tissue biodistribution of ^124I radioactivity", "settings": "120 min pi of ^124I-p5; n = 3; more in AA mice"}, "[3]": {"tested_on": "amyloid-laden (AA) H2-L^d-HuIL-6 Tg BALB/c mice", "assay": "Dynamic PET/CT imaging of ^124I-p5, time activity curves, amyloid-laden"}, "[4]": {"assay": "Dynamic PET/CT imaging of ^124I-p5 in mice", "settings": "^124I-p5 IV, dynamic PET"}, "[5]": {"assay": "Dynamic PET/CT imaging of ^124I-p5, time activity curves, healthy", "settings": "WT mice, ^124I-p5 IV"}, "AA amyloid deposits [6]": {"tested_on": "AA amyloid deposits", "settings": "^125I-p5; 72 h pi; AA mice; microautoradiography"}, "[7]": {"settings": "AA mice, ^124I-p5 IV, dynamic PET 2 h, double exponential fit"}, "[8]": {"settings": "AA mice, ^124I-p5 IV, dynamic PET 2 h, single exponential fit"}, "[9]": {"settings": "higher in AA mice, biexponential decay, dynamic PET"}, "[10]": {"settings": "dynamic PET 2 h, double exponential fit"}, "[11]": {"settings": "dynamic PET 2 h, single exponential fit"}}, "note": "Values joined by “and” are separate entries in the source; they are usually repeats but may differ in a detail not shown here. Equal values may be shown once. Where a SMILES comes first, the peptide text is derived from it. The star is where a group is joined. 124I = [124I]*; 125I = [125I]*"}
{"compound": "C[C@H](NC(=O)[C@H](CCC(N)=O)NC(=O)[C@H](C)NC(=O)[C@H](CCCCN)NC(=O)[C@H](CCC(N)=O)NC(=O)[C@H](C)NC(=O)[C@H](CCCCN)NC(=O)[C@H](CCC(N)=O)NC(=O)[C@H](C)NC(=O)[C@H](CCC(N)=O)NC(=O)[C@H](CCCCN)NC(=O)[C@H](C)NC(=O)[C@H](CCC(N)=O)NC(=O)[C@H](CCCCN)NC(=O)[C@H](C)NC(=O)[C@H](CCC(N)=O)NC(=O)[C@H](C)NC(=O)[C@H](CCCCN)NC(=O)[C@H](CCC(N)=O)NC(=O)[C@H](C)NC(=O)[C@H](CCCCN)NC(=O)[C@H](CO)NC(=O)[C@H](Cc1ccc(O)cc1)NC(=O)CNC(=O)CNC(=O)CN)C(=O)N[C@@H](CCCCN)C(=O)N[C@@H](CCC(N)=O)C(=O)N[C@@H](C)C(=O)N[C@@H](CCCCN)C(=O)N[C@@H](CCC(N)=O)C(=O)O", "note": "[p5] (H-GGGYSKAQKAQAKQAKQAQKAQKAQAKQAKQ-OH)", "values": [{"measurement": "Time the peptide remains bound to amyloid in vivo", "setting": "AA amyloid deposits [1]; mice", "result": "at least 3 days"}, {"measurement": "Time the peptide remains stably bound to amyloid deposits and radioactive", "setting": "AA amyloid deposits [1]; mice, pi", "result": "at least 72 h"}]}
{"compound": "^124I-p5: peptide p5 radiolabeled with ^124I on Tyr using Iodogen, for PET imaging (H-GGGY(124I)SKAQKAQAKQAKQAQKAQKAQAKQAKQ-OH)", "values": [{"measurement": "Radioactivity (%ID/g) in liver, pancreas and spleen, AA mice compared to WT mice", "setting": "AA amyloid deposits [2]", "result": "~ 10 fold"}, {"measurement": "Lag time (tlag) before accumulation of radioactivity in stomach", "setting": "[3]; AA mice, ^124I-p5 IV, dynamic PET", "result": "~ 8 min"}, {"measurement": "Kslow, liver", "setting": "[3]; AA mice, ^124I-p5 IV, dynamic PET 2 h, double exponential association", "result": "0.17 ± 0.01", "unit": "min⁻¹"}, {"measurement": "Kslow, blood (heart ROI)", "setting": "[3]; [7]", "result": "0.49 ± 0.04", "unit": "min⁻¹"}, {"measurement": "T1/2 fast, blood", "setting": "[3]; [7]", "result": 0.49, "unit": "min"}, {"measurement": "T1/2 fast, liver", "setting": "[3]; [7]", "result": 0.31, "unit": "min"}, {"measurement": "Kfast, spleen", "setting": "[3]; AA mice, ^124I-p5 IV, dynamic PET 2 h, single exponential association", "result": "0.04 ± 0.00", "unit": "min⁻¹"}, {"measurement": "Kfast, kidney", "setting": "[3]; [8]", "result": "0.04 min⁻¹ and 0.04 ± 0.003 min⁻¹"}, {"measurement": "T1/2 fast, kidney", "setting": "[3]; [8]", "result": 16.62, "unit": "min"}, {"measurement": "T1/2 fast, spleen", "setting": "[3]; [8]", "result": 15.62, "unit": "min"}, {"measurement": "Blood pool Kfast (α component), AA mice relative to WT mice", "setting": "[3]; [9]", "result": "> 2", "unit": "fold"}, {"measurement": "Blood pool Kslow (β), AA mice relative to WT mice", "setting": "[3]; [9]", "result": "> 2", "unit": "fold"}, {"measurement": "Lag time (tlag) of thyroid radioactivity", "setting": "[4]; WT and AA not distinguished", "result": "~ 8 min"}, {"measurement": "Radioactivity removed from the blood pool", "setting": "[4]; by 5 min pi", "result": "~ 90%"}, {"measurement": "Lag time (tlag) before accumulation of radioactivity in stomach", "setting": "[5]; dynamic PET", "result": "~ 8 min"}, {"measurement": "Time of peak activity in the kidneys (tmax)", "setting": "[5]; dynamic PET", "result": "~ 7 min"}, {"measurement": "T1/2 fast, liver", "setting": "[5]; [10]", "result": 0.70, "unit": "min"}, {"measurement": "T1/2 slow, blood", "setting": "[5]; [10]", "result": 37.99, "unit": "min"}, {"measurement": "T1/2 slow, liver", "setting": "[5]; [10]", "result": 20.82, "unit": "min"}, {"measurement": "Kfast, kidney", "setting": "[5]; dynamic PET 2 h, single exponential decay after peak", "result": "0.06 min⁻¹ and 0.06 ± 0.001 min⁻¹"}, {"measurement": "T1/2 fast, kidney", "setting": "[5]; [11]", "result": 10.96, "unit": "min"}, {"measurement": "T1/2 fast, spleen", "setting": "[5]; [11]", "result": 11.19, "unit": "min"}, {"measurement": "T1/2 fast, thyroid", "setting": "[5]; [11]", "result": 20.67, "unit": "min"}]}
{"compound": "^125I-p5: peptide p5 radioiodinated with ^125I using chloramine T, for SPECT imaging (H-GGGY(125I)SKAQKAQAKQAKQAQKAQKAQAKQAKQ-OH)", "values": [{"measurement": "Reactivity with healthy tissues", "setting": "AA amyloid deposits [6]", "result": "No significant reactivity"}, {"measurement": "Loss of radioactivity from major amyloid organs (liver, spleen and pancreas)", "setting": "AA amyloid deposits [1]; AA mice, ^125I-p5, 72 h pi, SPECT", "result": "essentially no loss of radioactivity"}, {"measurement": "Time of retention in the liver and spleen", "setting": "AA amyloid deposits [1]; AA mice, ~5 μg ^125I-p5 (~150 μCi) IV, SPECT/CT at 2, 24, 48, 72 h pi", "result": "more than 72 h"}]}
